How the values were obtained:
Test in all cases: holdup assay
Design in all cases: key: below the threshold = too weak to quantify, mostly under pKd 3.1 to 4
APBA2_1, Q99767 = target: T1, APBA2_1, Q99767
T1 sequence (Q99767 563-664, limits assumed, looked up): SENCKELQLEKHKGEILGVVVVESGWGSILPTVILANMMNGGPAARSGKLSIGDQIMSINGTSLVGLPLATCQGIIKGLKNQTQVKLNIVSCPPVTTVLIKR

APBA3_1, O96018 = target: T2, APBA3_1, O96018
T2 sequence (O96018 389-490, limits assumed, looked up): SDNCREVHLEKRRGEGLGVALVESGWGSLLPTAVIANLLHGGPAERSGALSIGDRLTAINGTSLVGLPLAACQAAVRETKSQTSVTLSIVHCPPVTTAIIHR

CARD11, Q9BXL7 = target: T3, CARD11, Q9BXL7
T3 sequence (Q9BXL7 662-765, limits assumed, looked up): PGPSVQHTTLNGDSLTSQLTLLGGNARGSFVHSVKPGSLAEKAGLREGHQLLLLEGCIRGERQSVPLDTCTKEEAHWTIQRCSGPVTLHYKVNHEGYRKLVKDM

DLG3_1, Q92796 = target: T4, DLG3_1, Q92796
T4 sequence (Q92796 125-227, limits assumed, looked up): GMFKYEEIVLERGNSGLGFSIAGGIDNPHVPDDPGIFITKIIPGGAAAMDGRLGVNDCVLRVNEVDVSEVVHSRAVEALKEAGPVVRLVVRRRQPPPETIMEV

DLG4_1, P78352 = target: DLG4_1, P78352
Chain of DLG4_1, P78352 (P78352 62-152): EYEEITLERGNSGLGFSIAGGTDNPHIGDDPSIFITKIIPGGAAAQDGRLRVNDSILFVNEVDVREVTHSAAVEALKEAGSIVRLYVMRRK

FRMPD1, Q5SYB0 = target: T5, FRMPD1, Q5SYB0
T5 sequence (Q5SYB0 52-145, limits assumed, looked up): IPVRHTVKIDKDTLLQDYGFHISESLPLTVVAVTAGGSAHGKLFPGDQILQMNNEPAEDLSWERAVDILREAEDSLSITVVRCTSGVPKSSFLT

FRMPD4, Q14CM0 = target: FRMPD4, Q14CM0
Chain of FRMPD4, Q14CM0 (Q14CM0 67-160): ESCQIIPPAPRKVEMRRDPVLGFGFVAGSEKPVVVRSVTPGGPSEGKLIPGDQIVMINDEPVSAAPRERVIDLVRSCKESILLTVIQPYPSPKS

GRID2IP_1, A4D2P6 = target: GRID2IP_1, A4D2P6
Chain of GRID2IP_1, A4D2P6 (A4D2P6 1-87): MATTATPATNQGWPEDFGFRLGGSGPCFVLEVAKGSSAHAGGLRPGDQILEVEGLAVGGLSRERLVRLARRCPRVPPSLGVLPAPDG

GRIP1_5, Q9Y3R0 = target: T6, GRIP1_5, Q9Y3R0
T6 sequence (Q9Y3R0 568-668, limits assumed, looked up): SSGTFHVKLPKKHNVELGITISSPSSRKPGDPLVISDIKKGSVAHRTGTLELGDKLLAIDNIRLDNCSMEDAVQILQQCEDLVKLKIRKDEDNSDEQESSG

GRIP1_7, Q9Y3R0 = target: T7, GRIP1_7, Q9Y3R0
T7 sequence (Q9Y3R0 999-1096, limits assumed, looked up): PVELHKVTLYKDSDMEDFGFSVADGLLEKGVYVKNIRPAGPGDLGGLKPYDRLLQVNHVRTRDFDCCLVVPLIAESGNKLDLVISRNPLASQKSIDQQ

IL16_4, Q14005 = target: IL16_4, Q14005
Chain of IL16_4, Q14005 (Q14005 1229-1329): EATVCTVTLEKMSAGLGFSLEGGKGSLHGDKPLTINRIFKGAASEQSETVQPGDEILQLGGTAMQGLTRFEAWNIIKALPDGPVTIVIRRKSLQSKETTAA

Inadl_3, Q8NI35 = target: Inadl_3, Q8NI35
Chain of Inadl_3, Q8NI35 (Q8NI35 359-469): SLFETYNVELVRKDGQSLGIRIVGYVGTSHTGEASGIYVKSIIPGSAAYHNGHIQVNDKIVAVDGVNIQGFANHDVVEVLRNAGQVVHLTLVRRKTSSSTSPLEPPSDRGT

LDB3, O75112 = target: LDB3, O75112
Chain of LDB3, O75112 (O75112 1-94): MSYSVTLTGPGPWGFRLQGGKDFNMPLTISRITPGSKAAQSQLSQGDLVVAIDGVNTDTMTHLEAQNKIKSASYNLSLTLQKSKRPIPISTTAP

LIN7A, O14910 = target: T8, LIN7A, O14910
T8 sequence (O14910 103-200, limits assumed, looked up): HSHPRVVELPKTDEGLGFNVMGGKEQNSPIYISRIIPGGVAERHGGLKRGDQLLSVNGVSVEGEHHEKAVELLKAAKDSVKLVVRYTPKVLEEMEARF

MAGI2_3, Q86UL8 = target: MAGI2_3, Q86UL8
Chain of MAGI2_3, Q86UL8 (Q86UL8 600-682): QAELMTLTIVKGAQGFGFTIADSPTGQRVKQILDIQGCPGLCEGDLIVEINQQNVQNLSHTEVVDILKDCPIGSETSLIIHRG

MAGI2_6, Q86UL8 = target: MAGI2_6, Q86UL8
Chain of MAGI2_6, Q86UL8 (Q86UL8 1141-1229): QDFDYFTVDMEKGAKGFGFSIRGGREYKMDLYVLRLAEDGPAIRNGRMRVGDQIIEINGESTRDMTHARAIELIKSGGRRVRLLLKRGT

MPDZ_12, O75970 = target: T9, MPDZ_12, O75970
T9 sequence (O75970 1857-1958, limits assumed, looked up): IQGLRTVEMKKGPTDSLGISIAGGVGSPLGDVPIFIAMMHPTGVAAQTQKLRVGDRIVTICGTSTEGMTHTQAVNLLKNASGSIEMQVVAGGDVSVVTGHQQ

MPDZ_5, O75970 = target: T10, MPDZ_5, O75970
T10 sequence (O75970 695-796, limits assumed, looked up): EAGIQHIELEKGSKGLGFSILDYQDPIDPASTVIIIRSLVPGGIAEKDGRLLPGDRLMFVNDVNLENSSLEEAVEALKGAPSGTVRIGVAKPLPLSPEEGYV

NHERF3_1, Q5T2W1 = target: T11, NHERF3_1, Q5T2W1
T11 sequence (Q5T2W1 4-100, limits assumed, looked up): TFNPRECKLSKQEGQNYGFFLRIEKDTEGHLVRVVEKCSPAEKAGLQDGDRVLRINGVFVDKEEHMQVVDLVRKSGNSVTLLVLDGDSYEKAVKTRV

NOS1, P29475 = target: NOS1, P29475
Chain of NOS1, P29475 (P29475 9-101): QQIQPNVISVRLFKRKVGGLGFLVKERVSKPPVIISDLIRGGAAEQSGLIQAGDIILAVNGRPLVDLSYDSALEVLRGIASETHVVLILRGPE

PARD3B_1, Q8TEW8 = target: T12, PARD3B_1, Q8TEW8
T12 sequence (Q8TEW8 196-299, limits assumed, looked up): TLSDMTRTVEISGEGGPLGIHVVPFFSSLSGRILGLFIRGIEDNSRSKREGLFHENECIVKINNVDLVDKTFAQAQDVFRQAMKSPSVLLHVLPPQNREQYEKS

PARD3_3, Q8TEW0 = target: PARD3_3, Q8TEW0
Chain of PARD3_3, Q8TEW0 (Q8TEW0 582-685): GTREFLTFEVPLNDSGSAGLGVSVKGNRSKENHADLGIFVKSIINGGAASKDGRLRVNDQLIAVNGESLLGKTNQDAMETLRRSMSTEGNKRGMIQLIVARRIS

PDLIM1, O00151 = target: PDLIM1, O00151
Chain of PDLIM1, O00151 (O00151 1-87): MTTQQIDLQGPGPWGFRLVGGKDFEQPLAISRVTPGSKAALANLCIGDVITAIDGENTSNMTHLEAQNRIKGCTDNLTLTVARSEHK

PDZRN3_1, Q9UPQ7 = target: T13, PDZRN3_1, Q9UPQ7
T13 sequence (Q9UPQ7 244-349, limits assumed, looked up): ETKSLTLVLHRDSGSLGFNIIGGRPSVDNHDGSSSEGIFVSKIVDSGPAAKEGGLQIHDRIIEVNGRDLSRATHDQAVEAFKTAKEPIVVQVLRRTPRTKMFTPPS

[1] = plain residues with an end cap or a label only (N-terminal biotin on a linker: ahx)
[2] = plain residues with an end cap or a label only (N-terminal biotin on a linker: ado-ado)
[3] = plain residues with an end cap or a label only (N-terminal biotin on a linker: ttds)

For HSGSYLVTSV [APC, P25054], the pKd (APBA2_1, Q99767; [1]) was “below the threshold”, the pKd (APBA3_1, O96018; [1]) was “below the threshold” and the pKd (CARD11, Q9BXL7; [1]) was “below the threshold”. The pKd (DLG3_1, Q92796; [1]) was 3.82, the pKd (DLG4_1, P78352; [1]) was 4.38 and the pKd (FRMPD1, Q5SYB0; [1]) was “below the threshold”. For the same binder, the pKd (FRMPD4, Q14CM0; [1]) was “below the threshold”, the pKd (GRID2IP_1, A4D2P6; [1]) was “below the threshold” and the pKd (GRIP1_5, Q9Y3R0; [1]) was “below the threshold”. The pKd (GRIP1_7, Q9Y3R0; [1]) was “below the threshold”, the pKd (IL16_4, Q14005; [1]) was “below the threshold” and the pKd (Inadl_3, Q8NI35; [1]) was “below the threshold”. The pKd (LDB3, O75112; [1]) was “below the threshold”, the pKd (LIN7A, O14910; [1]) was “below the threshold” and the pKd (MAGI2_3, Q86UL8; [1]) was 4.31. For the same binder, the pKd (MAGI2_6, Q86UL8; [1]) was 4.85, the pKd (MPDZ_12, O75970; [1]) was 3.63 and the pKd (MPDZ_5, O75970; [1]) was “below the threshold”. The pKd (NHERF3_1, Q5T2W1; [1]) was “below the threshold”, the pKd (NOS1, P29475; [1]) was 3.68 and the pKd (PARD3B_1, Q8TEW8; [1]) was “below the threshold”. The pKd (PARD3_3, Q8TEW0; [1]) was “below the threshold”, the pKd (PDLIM1, O00151; [1]) was “below the threshold” and the pKd (PDZRN3_1, Q9UPQ7; [1]) was “below the threshold”.

For RGGFGRQTQI [NCBP2L, A6PVI3], the pKd (APBA2_1, Q99767; [2]) was “below the threshold”, the pKd (APBA3_1, O96018; [2]) was “below the threshold” and the pKd (CARD11, Q9BXL7; [2]) was “below the threshold”. The pKd (DLG3_1, Q92796; [2]) was 3.58, the pKd (DLG4_1, P78352; [2]) was 4.25 and the pKd (FRMPD1, Q5SYB0; [2]) was “below the threshold”. For the same binder, the pKd (FRMPD4, Q14CM0; [2]) was “below the threshold”, the pKd (GRID2IP_1, A4D2P6; [2]) was “below the threshold” and the pKd (GRIP1_5, Q9Y3R0; [2]) was “below the threshold”. For the same binder, the pKd (GRIP1_7, Q9Y3R0; [2]) was “below the threshold”, the pKd (IL16_4, Q14005; [2]) was “below the threshold” and the pKd (Inadl_3, Q8NI35; [2]) was “below the threshold”. The pKd (LDB3, O75112; [2]) was 3.66, the pKd (LIN7A, O14910; [2]) was “below the threshold” and the pKd (MAGI2_3, Q86UL8; [2]) was 3.51. For the same binder, the pKd (MAGI2_6, Q86UL8; [2]) was 3.78, the pKd (MPDZ_12, O75970; [2]) was 3.76 and the pKd (MPDZ_5, O75970; [2]) was “below the threshold”. For the same binder, the pKd (NHERF3_1, Q5T2W1; [2]) was 4.54, the pKd (NOS1, P29475; [2]) was 4.08 and the pKd (PARD3B_1, Q8TEW8; [2]) was “below the threshold”. The pKd (PARD3_3, Q8TEW0; [2]) was “below the threshold”, the pKd (PDLIM1, O00151; [2]) was “below the threshold” and the pKd (PDZRN3_1, Q9UPQ7; [2]) was 3.74.

With TGDTLEKFVEGL [CBP, Q92793] the pKd (APBA2_1, Q99767; [3]) was “below the threshold”, the pKd (APBA3_1, O96018; [3]) was “below the threshold” and the pKd (CARD11, Q9BXL7; [3]) was “below the threshold”. For the same binder, the pKd (DLG3_1, Q92796; [3]) was “below the threshold”, the pKd (DLG4_1, P78352; [3]) was 3.54 and the pKd (FRMPD1, Q5SYB0; [3]) was “below the threshold”. The pKd (FRMPD4, Q14CM0; [3]) was “below the threshold”, the pKd (GRID2IP_1, A4D2P6; [3]) was “below the threshold” and the pKd (GRIP1_5, Q9Y3R0; [3]) was “below the threshold”. The pKd (GRIP1_7, Q9Y3R0; [3]) was “below the threshold”, the pKd (IL16_4, Q14005; [3]) was “below the threshold” and the pKd (Inadl_3, Q8NI35; [3]) was “below the threshold”. For the same binder, the pKd (LDB3, O75112; [3]) was “below the threshold”, the pKd (LIN7A, O14910; [3]) was “below the threshold” and the pKd (MAGI2_3, Q86UL8; [3]) was “below the threshold”. For the same binder, the pKd (MAGI2_6, Q86UL8; [3]) was “below the threshold”, the pKd (MPDZ_12, O75970; [3]) was “below the threshold” and the pKd (MPDZ_5, O75970; [3]) was “below the threshold”. The pKd (NHERF3_1, Q5T2W1; [3]) was “below the threshold”, the pKd (NOS1, P29475; [3]) was “below the threshold” and the pKd (PARD3B_1, Q8TEW8; [3]) was “below the threshold”. The pKd (PARD3_3, Q8TEW0; [3]) was “below the threshold”, the pKd (PDLIM1, O00151; [3]) was “below the threshold” and the pKd (PDZRN3_1, Q9UPQ7; [3]) was “below the threshold”.

— publication PMC9482650, “Quantitative fragmentomics allow affinity mapping of interactomes” (Nature Communications, 2022)
